Laboratory results published in patent US20240391984A1.
Changes are numbered by the printed parent chain. Numbers in names are those of the source.

B1: pAM246 (Protein L C3b domain; N10H, N45H, N60Q) (designed binder)
chain: PKEEVTIKVHLIFADGKIQTAEFKGTFEEATAKAYAYADLLAKEHGEYTADLEDGGYTIQIKFAGKETPETPEE
B2: pAM245 (Protein L C3 domain; H, H, Q at positions 10, 45, 60) (designed binder)
chain: B1 chain with D39N, Y57N
B3: pAM114 (wt B3 domain of Protein L) (protein)
chain: PKEEVTIKANLIYADGKTQTAEFKGTFEEATAEAYRYADLLAKENGKYTVDVADKGYTLNIKFAGKEKTPEE
B4: pAM237 (Protein L B2 domain; N10H, N45H, N60Q) (designed binder)
chain: B3 chain with N10H, T31A, L40A, A42K, E44D, N45H, K47E, N60Q
B5: pAM238 (Protein L B3 domain; N10H, N45H, N60Q) (designed binder)
chain: B3 chain with N10H, N45H, N60Q
B6: pAM252 (Protein L B3 domain; N10H, N45H, N60Y) (designed binder)
chain: B3 chain with N10H, N45H, N60Y
B7: pAM251 (Protein L B2 domain; N10H, N45H, N60Y) (designed binder)
chain: B3 chain with N10H, T31A, L40A, A42K, E44D, N45H, K47E, N60Y
B8: pAM249 (Protein L B1 domain; N10H, N45H, N60Y) (designed binder)
chain: SEEEVTIKAHLIFANGSTQTAEFKGTFEKATSEAYAYADTLKKDHGEYTVDVADKGYTLYIKFAGKEKTPEE
B9: pAM235 (Protein L B1 domain; N10H, N45H, N60Q) (designed binder)
chain: B8 chain with Y60Q
B10: pAM262 (D1 domain; N10H, N45H, N60Y) (designed binder)
chain: PKEEVTIKAHLIFADGKTQTAEFKGTFEEATAEAYRYADLLAKVHGEYTADLEDGGYTIYIKFAGKEQPGEN
B11: pAM248 (D1 domain; N10H, N45H, N60Q) (designed binder)
chain: B10 chain with Y60Q
B12: pAM260 (Protein L C3b domain; N10H, N45H, N60Y) (designed binder)
chain: B1 chain with Q60Y
B13: pAM259 (Protein L C3 domain; H, H, Y at positions 10, 45, 60) (designed binder)
chain: B1 chain with D39N, Y57N, Q60Y
B14: pAM244 (Protein L C2b domain; N10H, N45H, N60Q) (designed binder)
chain: B1 chain with I18T
B15: pAM243 (Protein L C2 domain; H, H, Q at positions 10, 45, 60) (designed binder)
chain: B1 chain with I18T, Y57N
B16: pAM257 (Protein L C2 domain; H, H, Y at positions 10, 45, 60) (designed binder)
chain: B1 chain with I18T, Y57N, Q60Y
B17: pAM240 (Protein L B5b domain; H, H, Q at positions 10, 45, 60) (designed binder)
chain: KEQVTIKEHIYFEDGTVQTATFKGTFAEATAEAYRYADLLSKEHGKYTADLEDGGYTIQIRFAGKEEPEE
B18: pAM254 (Protein L B5b domain; H, H, Y at positions 10, 45, 60) (designed binder)
chain: B17 chain with Q59Y
B19: pAM261 (Protein L C4 domain; N10H, N45H, N60Y) (designed binder)
chain: PKEEVTIKVHLIFADGKTQTAEFKGTFEEATAEAYRYADLLAKVHGEYTADLEDGGYTIYIKFAGKEQPGENPG
B20: pAM258 (Protein L C2b domain; N10H, N45H, N60Y) (designed binder)
chain: B1 chain with I18T, Q60Y
B21: pAM247 (Protein L C4 domain; N10H, N45H, N60Q) (designed binder)
chain: B19 chain with Y60Q
B22: pAM241 (Protein L C1 domain; H, H, Q at positions 10, 45, 60) (designed binder)
chain: PEEEVTIKAHLIFADGSTQNAEFKGTFAKAVSDAYAYADALKKDHGEYTVDVADKGLTLQIKFAGKKEKPEE
B23: pAM255 (Protein L C1 domain; H, H, Y at positions 10, 45, 60) (designed binder)
chain: B22 chain with Q60Y
B24: pAM253 (Protein L B4 domain; N10H, N45H, N60Y) (designed binder)
chain: PKEEVTIKAHLIYADGKTQTAEFKGTFAEATAEAYRYADLLAKEHGKYTADLEDGGYTIYIRFAGKKVDEKPEE
B25: pAM239 (Protein L B4 domain; N10H, N45H, N60Q) (designed binder)
chain: B24 chain with Y60Q
B26: pAM135 (B3 domain of Protein L; pos 10 Y, pos 45 N, pos 60 Q) (designed binder)
chain: B3 chain with N10Y, N60Q
B27: pAM125 (B3 domain of Protein L; pos 10 Q, pos 45 H, pos 60 N) (designed binder)
chain: B3 chain with N10Q, N45H
B28: pAM138 (B3 domain of Protein L; pos 10 Y, pos 45 A, pos 60 Y) (designed binder)
chain: B3 chain with N10Y, N45A, N60Y
B29: pAM137 (B3 domain of Protein L; pos 10 Y, pos 45 A, pos 60 Q) (designed binder)
chain: B3 chain with N10Y, N45A, N60Q
B30: pAM122 (B3 domain of Protein L; pos 10 N, pos 45 H, pos 60 Y) (designed binder)
chain: B3 chain with N45H, N60Y
B31: pAM120 (B3 domain of Protein L; pos 10 N, pos 45 A, pos 60 Y) (designed binder)
chain: B3 chain with N45A, N60Y
B32: pAM131 (B3 domain of Protein L; pos 10 Q, pos 45 H, pos 60 Y) (designed binder)
chain: B3 chain with N10Q, N45H, N60Y
B33: pAM136 (B3 domain of Protein L; pos 10 Y, pos 45 N, pos 60 Y) (designed binder)
chain: B3 chain with N10Y, N60Y
B34: pAM118 (B3 domain of Protein L; pos 10 N, pos 45 N, pos 60 Y) (designed binder)
chain: B3 chain with N60Y
B35: pAM129 (B3 domain of Protein L; pos 10 Q, pos 45 A, pos 60 Y) (designed binder)
chain: B3 chain with N10Q, N45A, N60Y
B36: pAM121 (B3 domain of Protein L; pos 10 N, pos 45 H, pos 60 Q) (designed binder)
chain: B3 chain with N45H, N60Q
B37: pAM127 (B3 domain of Protein L; pos 10 Q, pos 45 N, pos 60 Y) (designed binder)
chain: B3 chain with N10Q, N60Y
B38: pAM140 (B3 domain of Protein L; pos 10 Y, pos 45 H, pos 60 Y) (designed binder)
chain: B3 chain with N10Y, N45H, N60Y
B39: pAM132 (B3 domain of Protein L; pos 10 Y, pos 45 N, pos 60 N) (designed binder)
chain: B3 chain with N10Y
B40: pAM139 (B3 domain of Protein L; pos 10 Y, pos 45 H, pos 60 Q) (designed binder)
chain: B3 chain with N10Y, N45H, N60Q
B41: pAM133 (B3 domain of Protein L; pos 10 Y, pos 45 A, pos 60 N) (designed binder)
chain: B3 chain with N10Y, N45A

What follows are binders tested against polyclonal IgG (Gammanorm, Octapharma, Sweden) (assay: SPR (Biacore 8K+), 1:1 kinetic fit; summary table, differs from Table 10).

Kd	Binder
15 nM	B1
54 nM	B2

Each binder was assayed against polyclonal IgG (Gammanorm, Octapharma, Sweden) (assay: SPR (Biacore 8K+), variant amine-coupled to CM5, Gammanorm as analyte, 1:1 kinetic fit).

Kd	Binder
11 nM	B3
27 nM	B4
25 nM	B5
16 nM	B6
20 nM	B7
29 nM	B8
42 nM	B9
11 nM	B10
16 nM	B11
17 nM	B1
18 nM	B12
55 nM	B13
18 nM	B14
39 nM	B15
47 nM	B16
65 nM	B2
15 nM	B17
7 nM	B18
12 nM	B19
17 nM	B20
9 nM	B21
87 nM	B22
146 nM	B23
14 nM	B24
17 nM	B25

What follows are binders tested against polyclonal IgG (Gammanorm, Octapharma, Sweden) (assay: SPR (Biacore 8K+), steady state fit; summary table, differs from Table 10).

Kd	Binder
47 nM	B1
118 nM	B2

The binders below were run against polyclonal IgG (Gammanorm, Octapharma, Sweden) (assay: SPR (Biacore 8K+), variant amine-coupled to CM5, Gammanorm as analyte, steady state fit).

Kd	Binder
45 nM	B3
61 nM	B26
50 nM	B27
73 nM	B28
64 nM	B29
89 nM	B30
69 nM	B31
81 nM	B32
77 nM	B33
68 nM	B34
63 nM	B35
76 nM	B36
62 nM	B37
96 nM	B38
50 nM	B39
71 nM	B40
46 nM	B41

Target: polyclonal IgG (Gammanorm, Octapharma, Sweden)
Test: as above
Remark: another data set of the same source

Kd	Binder
46 nM	B3
72 nM	B4
82 nM	B5
69 nM	B6
55 nM	B7
79 nM	B8
101 nM	B9
48 nM	B10
56 nM	B11
49 nM	B1
51 nM	B12
120 nM	B13
50 nM	B14
83 nM	B15
98 nM	B16
134 nM	B2
79 nM	B17
41 nM	B18
43 nM	B19
45 nM	B20
38 nM	B21
187 nM	B22
324 nM	B23
54 nM	B24
60 nM	B25

Target: polyclonal IgG (Gammanorm, Octapharma, Sweden)
Test: SPR (Biacore 8K+), variant amine-coupled to CM5, Gammanorm as analyte, 1:1 kinetic fit
Remark: another data set of the same source

Kd	Binder
12 nM	B3
17 nM	B26
15 nM	B27
18 nM	B28
18 nM	B29
25 nM	B30
19 nM	B31
21 nM	B32
19 nM	B33
20 nM	B34
14 nM	B35
22 nM	B36
15 nM	B37
27 nM	B38
15 nM	B39
22 nM	B40
13 nM	B41
